Publication PMC7924758, “IAA3-mediated repression of PIF proteins coordinates light and auxin signaling in Arabidopsis” (PLoS Genetics, 2021)

Biological target: T1, His-PIF1 (Arabidopsis thaliana, UniProt Q8GZM7 1-478)
T1 construct: also called His-tagged PIF1; source: E. coli Transetta (DE3), purified (Ni-NTA agarose)
T1 sequence (looked up): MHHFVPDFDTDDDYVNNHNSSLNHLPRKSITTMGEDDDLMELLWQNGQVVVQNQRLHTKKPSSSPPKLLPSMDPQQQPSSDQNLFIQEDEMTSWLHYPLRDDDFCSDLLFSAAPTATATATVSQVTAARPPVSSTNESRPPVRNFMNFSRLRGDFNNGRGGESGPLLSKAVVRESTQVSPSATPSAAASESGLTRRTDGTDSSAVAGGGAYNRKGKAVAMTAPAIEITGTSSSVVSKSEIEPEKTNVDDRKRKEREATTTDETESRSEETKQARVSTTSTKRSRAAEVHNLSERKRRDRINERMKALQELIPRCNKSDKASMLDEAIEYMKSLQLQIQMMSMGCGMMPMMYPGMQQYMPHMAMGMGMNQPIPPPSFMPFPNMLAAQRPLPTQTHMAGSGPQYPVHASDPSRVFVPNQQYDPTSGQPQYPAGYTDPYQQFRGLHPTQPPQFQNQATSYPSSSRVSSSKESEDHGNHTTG
Experiment: pull-down; MBP or MBP-IAA3 held on amylose resin, His-PIF1 or His-PIF4 added, 3 h at 4°C; 50 mM Tris-Cl pH 8.0, 150 mM NaCl, 10% glycerol, 0.5 mM EDTA, 0.1% Triton X-100, 5 mM β-mercaptoethanol; five washes; blots with anti-MBP and anti-His
Conditions: both partners purified

B1: MBP-IAA3 (natural protein, Arabidopsis thaliana, UniProt Q38822 1-189, looked up)
chain: MDEFVNLKETELRLGLPGTDNVCEAKERVSCCNNNNKRVLSTDTEKEIESSSRKTETSPPRKAQIVGWPPVRSYRKNNIQSKKNESEHEGQGIYVKVSMDGAPYLRKIDLSCYKGYSELLKALEVMFKFSVGEYFERDGYKGSDFVPTYEDKDGDWMLIGDVPWEMFICTCKRLRIMKGSEAKGLGCGV
notes: IAA3 (SHY2), AUX/IAA transcriptional repressor, Arabidopsis; also called SHY2; source: E. coli Transetta (DE3), purified (amylose agarose)
binding result: binds
